Measurements taken from PMC6262623, “The Intermolecular Interaction of Ephexin4 Leads to Autoinhibition by Impeding Binding of RhoG” (Cells, 2018).

Legend:
[1] = biological target: T1, FLAG-tagged wild-type Ephexin4 (murine, UniProt Q3U5C8 1-713); assay: cell-based or functional assay
T1 sequence (looked up): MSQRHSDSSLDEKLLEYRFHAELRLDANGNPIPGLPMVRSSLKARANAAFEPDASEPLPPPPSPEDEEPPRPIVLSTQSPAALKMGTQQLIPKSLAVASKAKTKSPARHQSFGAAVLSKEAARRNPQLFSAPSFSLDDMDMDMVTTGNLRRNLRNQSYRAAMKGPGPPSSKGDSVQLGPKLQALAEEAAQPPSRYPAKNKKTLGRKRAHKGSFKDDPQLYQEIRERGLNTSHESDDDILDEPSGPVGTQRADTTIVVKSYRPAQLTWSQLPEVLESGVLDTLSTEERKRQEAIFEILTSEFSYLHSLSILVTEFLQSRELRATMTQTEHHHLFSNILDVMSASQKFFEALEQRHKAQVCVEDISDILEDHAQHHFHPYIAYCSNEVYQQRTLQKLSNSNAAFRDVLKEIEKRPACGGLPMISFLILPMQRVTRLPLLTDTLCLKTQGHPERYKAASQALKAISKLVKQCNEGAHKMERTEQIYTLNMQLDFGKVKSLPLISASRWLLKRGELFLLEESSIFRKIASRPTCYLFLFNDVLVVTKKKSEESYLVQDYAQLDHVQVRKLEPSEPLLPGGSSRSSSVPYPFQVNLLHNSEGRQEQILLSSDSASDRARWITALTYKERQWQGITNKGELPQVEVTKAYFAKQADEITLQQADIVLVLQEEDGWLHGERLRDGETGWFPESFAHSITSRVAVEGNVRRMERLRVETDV

[2] = biological target: T2, FLAG-tagged Ephexin4^E295A (murine, UniProt Q3U5C8 1-713, E295A); assay: cell-based or functional assay
T2 sequence (looked up): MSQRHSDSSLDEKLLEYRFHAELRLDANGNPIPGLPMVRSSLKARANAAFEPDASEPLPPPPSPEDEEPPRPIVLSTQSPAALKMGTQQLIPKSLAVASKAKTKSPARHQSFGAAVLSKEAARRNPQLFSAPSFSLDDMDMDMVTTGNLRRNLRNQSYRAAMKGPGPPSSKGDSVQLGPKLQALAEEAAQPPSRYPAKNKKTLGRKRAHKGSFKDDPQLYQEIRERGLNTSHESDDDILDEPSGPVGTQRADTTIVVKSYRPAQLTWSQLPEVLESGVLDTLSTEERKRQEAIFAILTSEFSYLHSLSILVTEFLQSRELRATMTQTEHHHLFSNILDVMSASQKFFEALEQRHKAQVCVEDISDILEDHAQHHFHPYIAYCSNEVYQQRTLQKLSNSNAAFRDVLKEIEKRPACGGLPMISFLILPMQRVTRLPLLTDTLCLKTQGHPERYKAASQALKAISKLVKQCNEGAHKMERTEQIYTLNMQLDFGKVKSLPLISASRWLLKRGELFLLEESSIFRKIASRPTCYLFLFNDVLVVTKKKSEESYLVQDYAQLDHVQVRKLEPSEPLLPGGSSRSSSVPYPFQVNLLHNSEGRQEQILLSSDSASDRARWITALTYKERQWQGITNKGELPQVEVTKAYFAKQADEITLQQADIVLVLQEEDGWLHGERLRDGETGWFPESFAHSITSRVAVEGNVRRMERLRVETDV

level of active (GTP-bound) RhoG precipitated by GST-Elmo2^N-term from 293T cells expressing wild-type Ephexin4, against control cells (Figure 3a,b) [1]: 1.6 fold
level of active endogenous RhoG (293T) precipitated by GST-Elmo2^N-term from cells expressing wild-type Ephexin4 (Figure 3c,d) [1]: 1.6 fold
level of active (GTP-bound) RhoG precipitated by GST-Elmo2^N-term from 293T cells expressing Ephexin4^E295A, against control cells (Figure 3a,b) [2]: 2.9 fold
level of active endogenous RhoG (293T) precipitated by GST-Elmo2^N-term from cells expressing Ephexin4^E295A (Figure 3c,d) [2]: 2.6 fold
B1: GFP-RhoG (natural protein)
chain: not shown
